{"source": "paper PMC11260492", "target": "RPA (native, unlabeled heterotrimer) (human, UniProt P27694;P15927;P35244 1-616;1-270;1-121)", "sequence (P27694 whole entry, chain 1 of 3)": "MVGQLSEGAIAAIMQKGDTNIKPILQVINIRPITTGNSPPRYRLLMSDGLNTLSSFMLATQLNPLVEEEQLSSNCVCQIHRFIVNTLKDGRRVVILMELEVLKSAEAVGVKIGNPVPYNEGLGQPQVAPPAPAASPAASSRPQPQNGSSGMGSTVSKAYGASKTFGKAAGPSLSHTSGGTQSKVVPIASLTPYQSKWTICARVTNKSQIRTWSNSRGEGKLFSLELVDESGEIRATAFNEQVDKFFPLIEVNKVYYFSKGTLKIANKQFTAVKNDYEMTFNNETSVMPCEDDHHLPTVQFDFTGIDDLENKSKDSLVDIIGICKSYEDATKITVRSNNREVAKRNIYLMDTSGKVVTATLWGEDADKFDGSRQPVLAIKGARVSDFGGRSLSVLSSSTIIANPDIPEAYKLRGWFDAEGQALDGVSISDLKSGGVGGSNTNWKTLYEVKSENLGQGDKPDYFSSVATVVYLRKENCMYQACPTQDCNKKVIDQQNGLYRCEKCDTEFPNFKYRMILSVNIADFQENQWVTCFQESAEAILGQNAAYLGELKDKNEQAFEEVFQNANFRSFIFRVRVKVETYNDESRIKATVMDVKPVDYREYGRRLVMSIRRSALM", "sequence (P15927 whole entry, chain 2 of 3)": "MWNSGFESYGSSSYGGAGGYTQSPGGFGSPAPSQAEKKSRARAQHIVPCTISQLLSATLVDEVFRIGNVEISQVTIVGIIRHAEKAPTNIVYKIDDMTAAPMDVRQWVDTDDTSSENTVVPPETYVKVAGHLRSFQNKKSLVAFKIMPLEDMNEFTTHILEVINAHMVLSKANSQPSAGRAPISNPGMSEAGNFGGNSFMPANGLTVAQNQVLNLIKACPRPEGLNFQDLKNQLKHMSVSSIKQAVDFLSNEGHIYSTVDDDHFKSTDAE", "sequence (P35244 whole entry, chain 3 of 3)": "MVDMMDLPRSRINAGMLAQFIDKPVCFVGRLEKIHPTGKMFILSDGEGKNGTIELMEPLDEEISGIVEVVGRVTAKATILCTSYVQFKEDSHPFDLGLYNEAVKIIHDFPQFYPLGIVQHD", "assay": "FRET equilibrium titration"}
{"binder": "TTTTTTTTTTTTTTTTTTTTTTTTTTTTTT (ssDNA)", "note": "[poly(dT)30-FRET]", "values": [{"measurement": "binding result", "result": "binds"}]}
